In US20060246046A1 (published 2006):

T1: factor XIIIa (human, UniProt P00488 39-732)
T1 sequence (looked up): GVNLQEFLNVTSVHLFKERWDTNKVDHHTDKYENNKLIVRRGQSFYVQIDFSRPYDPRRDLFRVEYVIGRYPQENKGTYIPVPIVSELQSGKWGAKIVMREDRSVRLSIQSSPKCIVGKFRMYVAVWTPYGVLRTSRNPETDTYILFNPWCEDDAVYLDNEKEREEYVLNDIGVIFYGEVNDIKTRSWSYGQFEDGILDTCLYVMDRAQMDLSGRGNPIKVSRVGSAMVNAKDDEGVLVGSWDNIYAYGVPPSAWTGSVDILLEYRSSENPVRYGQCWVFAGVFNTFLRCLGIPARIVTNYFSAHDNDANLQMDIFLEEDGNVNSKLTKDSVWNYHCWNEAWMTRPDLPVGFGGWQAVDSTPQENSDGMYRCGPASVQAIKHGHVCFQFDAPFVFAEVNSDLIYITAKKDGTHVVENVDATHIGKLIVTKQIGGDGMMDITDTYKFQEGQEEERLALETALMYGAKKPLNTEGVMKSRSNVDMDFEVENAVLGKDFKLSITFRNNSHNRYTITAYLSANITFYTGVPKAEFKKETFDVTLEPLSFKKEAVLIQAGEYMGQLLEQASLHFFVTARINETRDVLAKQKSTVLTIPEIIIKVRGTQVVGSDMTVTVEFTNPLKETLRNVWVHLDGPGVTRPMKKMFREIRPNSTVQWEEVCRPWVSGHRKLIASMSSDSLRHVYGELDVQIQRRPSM


target: T1, factor XIIIa; assay: cell-based or functional assay

Row | Binder | Relative inhibitory effect (%) at 7.27 µM, recombinant tridegin = 100% [%]
1 | Ac-DDIYQRPVEFPNLPLKPREE-NH2 [20 amino acid-long tridegin peptide SEQ ID NO.26] | 35.6
2 | Ac-PMDDIYQRPVEFPNLPLKPR-NH2 [20 amino acid-long tridegin peptide SEQ ID NO.25] | 42.1
3 | Ac-IKPMDDIYQRPVEFPNLPLK-NH2 [20 amino acid-long tridegin peptide SEQ ID NO.24] | 43.5

target: T1, factor XIIIa; assay: cell-based or functional assay; remark: another data set of the same source

Row | Binder | Relative inhibitory effect (%) at 5.45 µM, wild type = 100% [%]
4 | modified tridegin K02A (protein, not shown: small tags and cut ends) MALLPCKEWHQGIPNPRCWCGADLECAQDQYCAFIPQCRPRSELIKPMDDIYQRPVEFPNLPLKPREE | 113
5 | modified tridegin Cys variant C06A (protein, not shown: small tags and cut ends) MKLLPAKEWHQGIPNPRCWCGADLECAQDQYCAFIPQCRPRSELIKPMDDIYQRPVEFPNLPLKPREE | 72
6 | modified tridegin K07A (protein, not shown: small tags and cut ends) MKLLPCAEWHQGIPNPRCWCGADLECAQDQYCAFIPQCRPRSELIKPMDDIYQRPVEFPNLPLKPREE | 90
7 | modified tridegin Cys variant C20A (protein, not shown: small tags and cut ends) MKLLPCKEWHQGIPNPRCWAGADLECAQDQYCAFIPQCRPRSELIKPMDDIYQRPVEFPNLPLKPREE | 63
8 | modified tridegin L24A (protein, not shown: small tags and cut ends) MKLLPCKEWHQGIPNPRCWCGADAECAQDQYCAFIPQCRPRSELIKPMDDIYQRPVEFPNLPLKPREE | 92
9 | modified tridegin H10A (protein, not shown: small tags and cut ends) MKLLPCKEWAQGIPNPRCWCGADLECAQDQYCAFIPQCRPRSELIKPMDDIYQRPVEFPNLPLKPREE | 87
10 | modified tridegin Y31A (protein, not shown: small tags and cut ends) MKLLPCKEWHQGIPNPRCWCGADLECAQDQACAFIPQCRPRSELIKPMDDIYQRPVEFPNLPLKPREE | 69
11 | modified tridegin Cys variant C26A (protein, not shown: small tags and cut ends) MKLLPCKEWHQGIPNPRCWCGADLEAAQDQYCAFIPQCRPRSELIKPMDDIYQRPVEFPNLPLKPREE | 82
12 | modified tridegin Cys variant C32A (protein, not shown: small tags and cut ends) MKLLPCKEWHQGIPNPRCWCGADLECAQDQYAAFIPQCRPRSELIKPMDDIYQRPVEFPNLPLKPREE | 86
13 | modified tridegin G12A (protein, not shown: small tags and cut ends) MKLLPCKEWHQAIPNPRCWCGADLECAQDQYCAFIPQCRPRSELIKPMDDIYQRPVEFPNLPLKPREE | 97
14 | modified tridegin Cys variant C26A; +C38A (protein, not shown: small tags and cut ends) MKLLPCKEWHQGIPNPRCWCGADLEAAQDQYCAFIPQARPRSELIKPMDDIYQRPVEFPNLPLKPREE | 80
15 | modified tridegin Cys variant C18A (protein, not shown: small tags and cut ends) MKLLPCKEWHQGIPNPRAWCGADLECAQDQYCAFIPQCRPRSELIKPMDDIYQRPVEFPNLPLKPREE | 93

target: T1, factor XIIIa; assay: cell-based or functional assay; remark: another data set of the same source

Row | Binder | IC50, Berichrom test, purified peptide [µM] | IC50, Berichrom assay, HPLC-purified peptide [µM]
16 | DDIYQRPVEFPNLP [DDIYQRPVEFPNLP (SEQ ID No. 88) (14mer)] | ~280 | –
17 | MDDIYQRPVEFPNLPL [MDDIYQRPVEFPNLPL (SEQ ID No. 87) (16mer)] | 19 | –
18 | Ac-DDIYQRPVEFPNLPLKPREE-NH2 [20 amino acid-long tridegin peptide SEQ ID NO.26] | – | 5
19 | Ac-PMDDIYQRPVEFPNLPLKPR-NH2 [20 amino acid-long tridegin peptide SEQ ID NO.25] | – | 4
20 | Ac-IKPMDDIYQRPVEFPNLPLK-NH2 [20 amino acid-long tridegin peptide SEQ ID NO.24] | – | 7
